Measured values: publication PMC3254805

Target: endogenous GSK3β (UniProt P49841)
Assay: anti-FoxO3a IP, GSK3β blot
Details: reference: HA-FoxO3a-WT; sites T32,S253,S315

Question: “FoxO3a (RLuc- or HA-tagged constructs, WT and TM) (from UniProt O43524) HA-FoxO3a-TM (triple mutant)” was tested. Which “binding against the reference” value did it give?
Answer: The value was “stronger”.
